The numbers were not newly measured in PMC2650391, which cites them from elsewhere.

pKd: −log10 of the molar value.

A word on the pKd: it is −log10 of the Kd, conventionally taken in molar units.

The series has as its target Histone H3K4me3 peptide (Homo sapiens) (UniProt P68431).

Chain of ING2 PHD (Q9H160 209-264): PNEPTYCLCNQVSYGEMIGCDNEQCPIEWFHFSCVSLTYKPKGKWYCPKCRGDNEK

Turning to ING2 PHD (from UniProt Q9H160), the pKd was 5.82.
